Molecular target: V5-HSP70 (UniProt P0DMV8)
Test: co-IP

Chain of UniProt P0DMV8 (P0DMV8 whole entry): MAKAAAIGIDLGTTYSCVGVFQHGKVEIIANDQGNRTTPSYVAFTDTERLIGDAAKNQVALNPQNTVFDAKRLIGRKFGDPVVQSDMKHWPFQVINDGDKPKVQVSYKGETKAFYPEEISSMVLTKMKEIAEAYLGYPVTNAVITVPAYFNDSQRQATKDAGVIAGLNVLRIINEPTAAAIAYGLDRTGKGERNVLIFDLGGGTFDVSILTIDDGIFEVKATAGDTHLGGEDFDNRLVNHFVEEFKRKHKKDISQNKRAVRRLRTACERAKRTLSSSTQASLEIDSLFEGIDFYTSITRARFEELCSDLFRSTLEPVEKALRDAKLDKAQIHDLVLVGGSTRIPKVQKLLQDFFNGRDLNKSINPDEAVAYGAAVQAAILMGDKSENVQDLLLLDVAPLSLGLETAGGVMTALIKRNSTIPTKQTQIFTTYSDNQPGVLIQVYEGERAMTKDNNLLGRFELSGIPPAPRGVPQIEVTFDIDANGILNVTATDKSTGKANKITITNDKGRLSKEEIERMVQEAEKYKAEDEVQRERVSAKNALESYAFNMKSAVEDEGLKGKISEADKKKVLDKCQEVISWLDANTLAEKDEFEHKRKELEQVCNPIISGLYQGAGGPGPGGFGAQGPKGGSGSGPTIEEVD

decrease of the association relative to WT BAG3: > 50%
Substance: BAG3 with L462P mutation (pCDH-L462P BAG3) (from UniProt O95817 1-575) (natural protein)
